Our source for the % double positive values is US20060286092A1.

In assay [1] the target is B7-H1 (full-length, expressed on BHK cells transfected with pZMP21 hB7-H1) (human) (UniProt Q9NZQ7). Kind of assay: flow cytometry (PE probe vs anti-CD8 APC) on BHK cells transfected with full-length B7-H1; no competitor. For orientation: A flow cytometer gives signals particle by particle.
Assay [2] shares this target. Nature of the assay: flow cytometry on B7-H1-transfected BHK cells; competitor: excess unlabeled BTLA/mFc2.
Assay [3] has the same target. Kind of assay: flow cytometry on B7-H1-transfected BHK cells; competitor: excess unlabeled NKp30/mFc2.
For assay [4] the target is unchanged. Nature of the assay: flow cytometry on B7-H1-transfected BHK cells; competitor: excess unlabeled BTLA/mFc2 (row printed a second time).

Sequence of UniProt Q9NZQ7 (Q9NZQ7 19-290): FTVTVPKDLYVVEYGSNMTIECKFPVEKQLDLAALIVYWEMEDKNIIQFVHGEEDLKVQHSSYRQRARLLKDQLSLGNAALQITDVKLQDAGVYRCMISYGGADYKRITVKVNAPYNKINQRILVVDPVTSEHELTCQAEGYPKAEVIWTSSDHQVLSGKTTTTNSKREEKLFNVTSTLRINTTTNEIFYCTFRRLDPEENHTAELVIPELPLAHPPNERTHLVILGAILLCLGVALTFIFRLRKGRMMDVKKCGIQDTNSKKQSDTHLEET

Substance BTLA/mFc2 (Fc fusion) came in with a % double positive in assay [1] of 1.96%.

With PD-1/Fc (Fc fusion), the % double positive in assay [2] came to 28.8%; in assay [3], 31.4%; in assay [1], 33.7%; in assay [4], 28.8%.

In assay [1], Zenon control returned a % double positive of 1.91%.
